Assay results taken from PMC9384988, “The TPR domain of PgaA is a multifunctional scaffold that binds PNAG and modulates PgaB-dependent polymer processing” (PLoS Pathogens, 2022).

Key:
PgaA-220-367 = biological target: T1, PgaA-220-367 (Escherichia coli, UniProt P69434); assay: Tryptophan quenching, wild-type PgaA-220-367; type: binding, E. coli; details: substrate concentration 4.5 mM
T1 construct: His6 (thrombin cleavable, pET28) (N); made in house; host or cells: E. coli BL21 CodonPlus (DE3)
T1 sequence (P69434 220-367): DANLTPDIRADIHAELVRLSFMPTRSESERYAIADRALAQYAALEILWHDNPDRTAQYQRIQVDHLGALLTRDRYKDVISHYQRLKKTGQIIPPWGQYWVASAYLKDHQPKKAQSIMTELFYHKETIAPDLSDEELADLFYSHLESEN
Method: Fluorescence measurements were carried out at 20°C in a quartz cuvette (type no. 115F-QS; Hellma Analytics) using a PTI QuantaMaster 80 steady-state fluorometer (Photon Technology International), with a 4-nm bandwidth for both excitation and emission and a speed of 2 nm/s. Fluorescence spectra were collected between 300 nm and 400 nm with an excitation wavelength of 280 nm and a peak emission wavelength of 334 nm. All samples were prepared in triplicates 10 minutes ahead of the collection in a solution containing 1 μM protein, 20 mM Tris buffer pH 8.0, 150 mM sodium chloride and 1 mM concentrations of dPNAG oligomers. Data measured for each sample was corrected for ligand fluorescence and inner filter effect. […] To obtain an approximate binding affinity the dPNAG oligomer concentration was varied between 0–10 mM.

His-PgaA (PgaA-32-807) = biological target: T2, His-PgaA (PgaA-32-807) (E. coli K-12, UniProt P69434 32-807); assay: co-purification (NiNTA, gel filtration) with SDS-PAGE; His-PgaA and PgaB constructs co-expressed in BL21, extracted with 1% DDM, purified by NiNTA and gel filtration (20 mM Tris pH 8, 150 mM NaCl, 0.1% DDM); Coomassie gel of the purified complexes; details: partners not purified
T2 construct: also called His-PgaA-32-807; full-length PgaA; source: E. coli BL21: co-expressed with PgaB, in DDM extract of the lysate pellet (pull-down); expressed alone or with PgaB and purified (NiNTA, gel filtration, DDM); not shown: His6, N-terminal, kept
T2 sequence (looked up): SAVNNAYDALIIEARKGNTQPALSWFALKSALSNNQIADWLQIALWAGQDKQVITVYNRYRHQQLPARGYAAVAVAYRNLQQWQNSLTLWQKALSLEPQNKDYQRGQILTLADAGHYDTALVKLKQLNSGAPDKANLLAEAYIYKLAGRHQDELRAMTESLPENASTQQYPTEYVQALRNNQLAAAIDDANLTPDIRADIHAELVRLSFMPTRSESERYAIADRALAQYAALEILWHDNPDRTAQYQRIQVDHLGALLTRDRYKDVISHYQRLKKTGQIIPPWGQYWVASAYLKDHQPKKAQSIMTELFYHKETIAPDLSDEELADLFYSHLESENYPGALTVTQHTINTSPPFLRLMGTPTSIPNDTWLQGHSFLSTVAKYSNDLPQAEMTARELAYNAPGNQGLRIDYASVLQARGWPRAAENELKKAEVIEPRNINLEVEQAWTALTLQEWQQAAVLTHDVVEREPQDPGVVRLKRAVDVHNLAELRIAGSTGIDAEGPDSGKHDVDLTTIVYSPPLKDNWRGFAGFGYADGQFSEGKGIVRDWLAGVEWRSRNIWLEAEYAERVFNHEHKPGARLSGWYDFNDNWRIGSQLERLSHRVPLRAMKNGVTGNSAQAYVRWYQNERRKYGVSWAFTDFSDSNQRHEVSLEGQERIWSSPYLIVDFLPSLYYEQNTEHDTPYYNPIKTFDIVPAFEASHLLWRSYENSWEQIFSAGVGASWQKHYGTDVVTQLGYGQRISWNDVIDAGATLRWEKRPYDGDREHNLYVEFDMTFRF

[1] = test system: Staphylococcus epidermidis strain SE801 biofilms; assay: Crystal violet-based biofilm disruption assay (glycoside hydrolase activity); type: cell-based; details: S. epidermidis SE801 biofilm, 2 h, lower EC50 = higher glycoside hydrolase activity
Method: To determine whether the modulation of enzyme activity might be a common theme for the TPR domain across synthase-dependent systems, we assayed the deacetylase and glycoside hydrolase activities of PgaB in the presence and absence of PgaA. As we used co-expression to obtain the complexes, a SDS PAGE gel of the purified solutions of PgaA, PgaB and PgaA/B complexes was analyzed to ensure that equal quantities of the protein/protein complex were used (Fig 2A). Consistent with previous published studies, PgaA and PgaB appear to form a 1:1 complex. The deacetylase activity was assessed using a fluorescamine-based assay with fully acetylated PNAG hexamers as the substrate. As fluorescamine detects the presence of primary amines, which are generated during the deacetylation of the PNAG oligosaccharide, this assay provides a direct readout of the deacetylation activity of PgaB. […] After a further 2 h, the reaction was quenched, plates washes and the amount of adherent biofilm remaining quantified using crystal violet staining. […]
Cultures of S. epidermidis clinical isolate SE801 were grown overnight at 37°C with shaking at 200 rpm in LB broth without antibiotics. […] The remaining dye was solubilized with 100 μl of 95% (v/v) ethanol for 10 min with rotation, after which time the absorbance was measured at 595 nm.

[2] = Fluorescamine de-acetylation assay; type: biochemical; details: 30 μM enzyme and 30 mM PNAG hexamer; fluorescamine readout
Method: To determine whether the modulation of enzyme activity might be a common theme for the TPR domain across synthase-dependent systems, we assayed the deacetylase and glycoside hydrolase activities of PgaB in the presence and absence of PgaA. As we used co-expression to obtain the complexes, a SDS PAGE gel of the purified solutions of PgaA, PgaB and PgaA/B complexes was analyzed to ensure that equal quantities of the protein/protein complex were used (Fig 2A). Consistent with previous published studies, PgaA and PgaB appear to form a 1:1 complex. The deacetylase activity was assessed using a fluorescamine-based assay with fully acetylated PNAG hexamers as the substrate. As fluorescamine detects the presence of primary amines, which are generated during the deacetylation of the PNAG oligosaccharide, this assay provides a direct readout of the deacetylation activity of PgaB. To assess the glycoside hydrolase activity, we used a biofilm disruption assay, which has been used previously to characterize PgaB’s glycosidase activity. In this assay, biofilms of Staphylococcus epidermidis strain SE801 were grown in 96 well plates for 24 h, at which point PgaB was added. After a further 2 h, the reaction was quenched, plates washes and the amount of adherent biofilm remaining quantified using crystal violet staining. […]

chitin
quenching of the signal at 334nm (PgaA-220-367): 9%

B1: PgaB (PgaB-1-672) (enzyme, E. coli, UniProt P75906 21-672, looked up)
chain: CISQSRTSFIPPQDRESLLAEQPWPHNGFVAISWHNVEDEAADQRFMSVRTSALREQFAWLRENGYQPVSIAQIREAHRGGKPLPEKAVVLTFDDGYQSFYTRVFPILQAFQWPAVWAPVGSWVDTPADKQVKFGDELVDREYFATWQQVREVARSRLVELASHTWNSHYGIQANATGSLLPVYVNRAYFTDHARYETAAEYRERIRLDAVKMTEYLRTKVEVNPHVFVWPYGEANGIAIEELKKLGYDMFFTLESGLANASQLDSIPRVLIANNPSLKEFAQQIITVQEKSPQRIMHIDLDYVYDENLQQMDRNIDVLIQRVKDMQISTVYLQAFADPDGDGLVKEVWFPNRLLPMKADIFSRVAWQLRTRSGVNIYAWMPVLSWDLDPTLTRVKYLPTGEKKAQIHPEQYHRLSPFDDRVRAQVGMLYEDLAGHAAFDGILFHDDALLSDYEDASAPAITAYQQAGFSGSLSEIRQNPEQFKQWARFKSRALTDFTLELSARVKAIRGPHIKTARNIFALPVIQPESEAWFAQNYADFLKSYDWTAIMAMPYLEGVAEKSADQWLIQLTNQIKNIPQAKDKSILELQAQNWQKNGQHQAISSQQLAHWMSLLQLNGVKNYGYYPDNFLHNQPEIDLIRPEFSTAWYPKND
modifications: C21 lipidated (residues 1-20 are a signal sequence that is cleaved during periplasmic targeting)
notes: signal peptide in the construct; Untagged; also called full-length PgaB; untagged PgaB; source: E. coli BL21: co-expressed with His-PgaA constructs, in DDM extract or co-purified; also separately expressed, cell pellet mixed with the PgaA pellet before lysis
stoichiometry N (His-PgaA (PgaA-32-807)): 1

B2: PgaB: soluble E. coli PgaB residues 22–672, de-N-acetylase and glycoside hydrolase (protein)
chain: CISQSRTSFIPPQDRESLLAEQPWPHNGFVAISWHNVEDEAADQRFMSVRTSALREQFAWLRENGYQPVSIAQIREAHRGGKPLPEKAVVLTFDDGYQSFYTRVFPILQAFQWPAVWAPVGSWVDTPADKQVKFGDELVDREYFATWQQVREVARSRLVELASHTWNSHYGIQANATGSLLPVYVNRAYFTDHARYETAAEYRERIRLDAVKMTEYLRTKVEVNPHVFVWPYGEANGIAIEELKKLGYDMFFTLESGLANASQLDSIPRVLIANNPSLKEFAQQIITVQEKSPQRIMHIDLDYVYDENLQQMDRNIDVLIQRVKDMQISTVYLQAFADPDGDGLVKEVWFPNRLLPMKADIFSRVAWQLRTRSGVNIYAWMPVLSWDLDPTLTRVKYLPTGEKKAQIHPEQYHRLSPFDDRVRAQVGMLYEDLAGHAAFDGILFHDDALLSDYEDASAPAITAYQQAGFSGSLSEIRQNPEQFKQWARFKSRALTDFTLELSARVKAIRGPHIKTARNIFALPVIQPESEAWFAQNYADFLKSYDWTAIMAMPYLEGVAEKSADQWLIQLTNQIKNIPQAKDKSILELQAQNWQKNGQHQAISSQQLAHWMSLLQLNGVKNYGYYPDNFLHNQPEIDLIRPEFSTAWYPKND
modifications: C21 lipidated (residues 1-20 are a signal sequence that is cleaved during periplasmic targeting)
notes: soluble E. coli PgaB residues 22–672, de-N-acetylase and glycoside hydrolase
EC50 [1]: 302 ± 82.3 nM
concentration of GlcN produced [2]: 988.6 ± 104.7 µM
